Where two headings read alike, the source gives them in different places. No end group written: not given here. *: point of attachment. FITC = O=C1OC2(c3ccc(O)cc3Oc3cc(O)ccc32)c2ccc(NC(=S)*)cc21
Legend:
Test in all cases: fluorescence polarisation
[1] = molecular target: T1, Paramecium calmodulin, full-length (CaM_(1-148)) (Paramecium, UniProt P07463 1-149)
[2] = molecular target: T2, Paramecium calmodulin C-domain fragment (CaM_(76-148)) (Paramecium, UniProt P07463 77-149)
[3] = molecular target: T3, Paramecium calmodulin N-domain fragment (CaM_(1-80)) (Paramecium, UniProt P07463 2-81)
[4] = molecular target: T1, Paramecium calmodulin, full-length …; remark: listed apart in the source
[5] = molecular target: T2, Paramecium calmodulin C-domain fragment …; remark: listed apart in the source
[6] = molecular target: T3, Paramecium calmodulin N-domain fragment …; remark: listed apart in the source

Binder: {FITC}-ARKEIIRNKIRAIGKMARVFSVLR
- Kd [1]: ≤ 0.001 µM
- Kd [2]: 0.96 µM
- Kd [3]: 7.06 µM
- Kd [4]: 25 µM
- Kd [5]: 44.1 µM
- Kd [6]: 600 µM

Reference: publication PMC3057930 (Proteins, 2010)
